Where only a bound is given, the exact number is not on record here.

Targets include ZFP-TF SBS-82294 (Artificial Sequence); ZFP-TF SBS-82197 (Artificial Sequence); ZFP-TF SBS-82190 (Artificial Sequence); ZFP-TF SBS-82215 (Artificial Sequence); ZFP-TF SBS-82090 (Artificial Sequence); ZFP-TF SBS-82150 (Artificial Sequence); ZFP-TF SBS-82092 (Artificial Sequence); ZFP-TF SBS-82107 (Artificial Sequence); ZFP-TF SBS-82225 (Artificial Sequence).
What all share (test): cell_activity; SNCA mRNA repression at highest dose
Common to all, as to conditions: tags: NLS, C-terminal KOX1 KRAB

Sequence of ZFP-TF SBS-82090 (Artificial Sequence) (chain, as listed by the source): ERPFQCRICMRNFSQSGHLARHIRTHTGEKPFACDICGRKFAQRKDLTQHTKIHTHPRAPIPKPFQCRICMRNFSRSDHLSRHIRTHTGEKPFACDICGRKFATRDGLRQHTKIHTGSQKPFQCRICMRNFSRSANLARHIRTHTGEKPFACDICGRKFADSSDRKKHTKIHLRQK
Sequence of ZFP-TF SBS-82092 (Artificial Sequence) (chain, as listed by the source): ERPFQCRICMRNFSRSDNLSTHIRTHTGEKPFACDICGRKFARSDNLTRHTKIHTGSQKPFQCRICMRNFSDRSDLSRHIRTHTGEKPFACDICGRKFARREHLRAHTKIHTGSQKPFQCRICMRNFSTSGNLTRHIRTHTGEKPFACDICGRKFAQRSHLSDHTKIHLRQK
Sequence of ZFP-TF SBS-82294 (Artificial Sequence) (chain, as listed by the source): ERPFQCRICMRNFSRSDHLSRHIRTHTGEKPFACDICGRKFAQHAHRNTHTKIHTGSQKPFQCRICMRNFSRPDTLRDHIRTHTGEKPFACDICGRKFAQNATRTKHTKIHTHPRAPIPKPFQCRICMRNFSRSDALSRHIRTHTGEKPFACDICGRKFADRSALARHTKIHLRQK
Sequence of ZFP-TF SBS-82150 (Artificial Sequence) (chain, as listed by the source): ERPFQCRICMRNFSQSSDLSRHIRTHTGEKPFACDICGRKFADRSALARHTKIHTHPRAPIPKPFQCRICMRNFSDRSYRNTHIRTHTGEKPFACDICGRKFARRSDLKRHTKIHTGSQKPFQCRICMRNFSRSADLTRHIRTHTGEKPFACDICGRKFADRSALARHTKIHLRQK
Sequence of ZFP-TF SBS-82197 (Artificial Sequence) (chain, as listed by the source): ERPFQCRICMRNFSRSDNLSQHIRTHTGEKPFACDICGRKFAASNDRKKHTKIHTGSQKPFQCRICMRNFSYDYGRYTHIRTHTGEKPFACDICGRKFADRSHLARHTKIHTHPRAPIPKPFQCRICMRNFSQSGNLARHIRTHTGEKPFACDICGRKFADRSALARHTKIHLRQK
Sequence of ZFP-TF SBS-82107 (Artificial Sequence) (chain, as listed by the source): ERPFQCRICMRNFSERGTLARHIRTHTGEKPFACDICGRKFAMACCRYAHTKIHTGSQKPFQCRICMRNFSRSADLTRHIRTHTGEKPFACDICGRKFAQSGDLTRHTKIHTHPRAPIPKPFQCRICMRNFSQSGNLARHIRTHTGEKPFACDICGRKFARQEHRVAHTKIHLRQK
Sequence of ZFP-TF SBS-82215 (Artificial Sequence) (chain, as listed by the source): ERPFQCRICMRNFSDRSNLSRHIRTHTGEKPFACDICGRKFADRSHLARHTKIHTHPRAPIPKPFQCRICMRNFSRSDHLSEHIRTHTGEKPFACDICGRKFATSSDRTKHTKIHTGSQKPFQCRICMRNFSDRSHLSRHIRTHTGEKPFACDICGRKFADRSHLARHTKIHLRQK
Sequence of ZFP-TF SBS-82190 (Artificial Sequence) (chain, as listed by the source): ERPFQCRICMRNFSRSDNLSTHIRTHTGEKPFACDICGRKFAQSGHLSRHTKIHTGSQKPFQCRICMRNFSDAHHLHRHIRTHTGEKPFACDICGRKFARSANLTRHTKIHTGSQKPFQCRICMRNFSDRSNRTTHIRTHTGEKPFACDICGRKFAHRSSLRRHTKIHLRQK
Sequence of ZFP-TF SBS-82225 (Artificial Sequence) (chain, as listed by the source): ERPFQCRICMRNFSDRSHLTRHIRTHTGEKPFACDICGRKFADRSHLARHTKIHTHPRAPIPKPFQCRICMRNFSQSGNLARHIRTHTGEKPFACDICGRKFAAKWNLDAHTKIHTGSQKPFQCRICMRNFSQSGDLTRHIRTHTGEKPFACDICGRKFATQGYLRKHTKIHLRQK

B1: SNCA site 82294 (dsDNA)
DNA 1: GGTCGTGGGCACCGGGAGGGG
DNA 2: CCCCTCCCGGTGCCCACGACC
Consider B1, for which the activity with ZFP-TF SBS-82294 is ≥ 95 % repression.

B2: SNCA site 82197 (dsDNA)
DNA 1: CGTCGAATGGCCACTCCCAGT
DNA 2: ACTGGGAGTGGCCATTCGACG
For the molecule B2, the activity with ZFP-TF SBS-82197 is ≥ 95 % repression.

B3: SNCA site 82190 (dsDNA)
DNA 1: CGCTCACGAGGGTGGAAAGG
DNA 2: CCTTTCCACCCTCGTGAGCG
As to B3, the activity with ZFP-TF SBS-82190 was ≥ 95 % repression.

B4: SNCA site 82215 (dsDNA)
DNA 1: AGGCGGCACCCGGGGGGGACT
DNA 2: AGTCCCCCCCGGGTGCCGCCT
B4: in the data set with ZFP-TF SBS-82215, the activity is ≥ 95 % repression.

B5: SNCA site 82090 (dsDNA)
DNA 1: ATCCGAGATAGGGACGAGGAG
DNA 2: CTCCTCGTCCCTATCTCGGAT
With B5, the activity with ZFP-TF SBS-82090 was ≥ 95 % repression.

B6: SNCA site 82150 (dsDNA)
DNA 1: CGTCGCGGCGCTCGGTCGCTC
DNA 2: GAGCGACCGAGCGCCGCGACG
Turning to B6, the activity with ZFP-TF SBS-82150 is ≥ 95 % repression.

B7: SNCA site 82092 (dsDNA)
DNA 1: CCGAGATAGGGACGAGGAGC
DNA 2: GCTCCTCGTCCCTATCTCGG
For B7, the activity with ZFP-TF SBS-82092 is ≥ 95 % repression.

B8: SNCA site 82107 (dsDNA)
DNA 1: CAGGGAAAGCAGCGAGCGCCG
DNA 2: CGGCGCTCGCTGCTTTCCCTG
With B8, the activity in the data set with ZFP-TF SBS-82107 is ≥ 95 % repression.

B9: SNCA site 82225 (dsDNA)
DNA 1: GAGCGCACAGGAAGGGCGGAG
DNA 2: CTCCGCCCTTCCTGTGCGCTC
Take B9: in the data set with ZFP-TF SBS-82225, the activity is ≥ 95 % repression.

The record behind these values is patent publication US20220324928, “Zinc Finger Protein Transcription Factors for Repressing Alpha-Synuclein Expression” (Sangamo Therapeutics, Inc., published 2022).
